# Measurements reported in patent US20070071681A1, “Apparatus and method for computer modeling type 1 diabetes” (Entelos, Inc., priority 2005, published 2007).
# B1: IL-10: exogenous recombinant human IL-10 (protein, UniProt P22301 19-178, looked up)
# Interleukin-10: SPGQGTQSENSCTHFPGNLPNMLRDLRDAFSRVKTFFQMKDQLDNLLLKESLLEDFKGYLGCQALSEMIQFYLEEVMPQAENQDPDIKAHVNSLGENLKTLRLRLRRCHRFLPCENKSKAVEQVKNAFNKLQEKGIYKAMSEFDIFINYIEAYMTMKIRN
# Key:
# NOD mouse = details: cited from earlier work
# [1] = tested on: average virtual NOD mouse; test: Simulation of therapy protocols in the average virtual NOD mouse (computer model of type 1 diabetes); details: IL-10; Pennline 1994 protocol; at 28 wks; expectation from published data
# Source text: One application of a NOD mouse type 1 diabetes model is to improve understanding of type 1 diabetes pathogenesis in the NOD mouse. Model development therefore focused on islet β cell autoimmunity and tolerance, as well as related mechanisms and interventions. To provide for general immunologic function and not only progression to diabetes, the development effort included representation of several NOD mouse phenotypes. The first phenotype was an average diabetic virtual mouse. […] Typically, a simulation of the average virtual mouse concludes shortly after diabetes diagnosis, which is consistent with post-diabetic sacrifice of NOD mice in the laboratory. […] Additional virtual mice, each with different clinical behaviors and/or underlying pathophysiologies, have also been generated. Similarly, development of modals of type 1 diabetes in other mammals, such as humans, can include the development of various virtual patients representing normal animals or animals having varying degrees of severity or progression of type 1 diabetes.
# Because diabetes is typically assessed by measuring blood or urinary glucose, blood glucose levels were represented in the model's clinical read-out. Hyperglycemia (a diabetes indicator) was defined as a glucose level in excess of a commonly used standard (e.g., 200, 250, 300, 350 mg/dl). […]
molecule,measurement,setting,value
B1,Incidence,"NOD mouse; IL-10, Pennline 1994, Rx 9-24 wks, 1 μg recombinant human IL-10 daily, 15 wks, at 28 wks, vs 85% control",25% vs. 85% control at 28 wks
same,Insulitis,"NOD mouse; IL-10, Pennline 1994",Reduced severity of insulitis
same,Disease progression,NOD mouse; IL-10 delivered in various ways,protect against disease progression
same,Expected virtual mouse outcome,[1],No diabetes at 28 wks
